PMC3290565, “Pentachlorophenol Induction of the Pseudomonas aeruginosa mexAB-oprM Efflux Operon: Involvement of Repressors NalC and MexR and the Antirepressor ArmR”

Legend:
[1] = target: T1, NalC-His (Pseudomonas aeruginosa K767, UniProt Q9HXS0 1-213); assay: EMSA; 300-2000 ng NalC-His, 40 ng DNA; settings: protein: recombinant; tags: C-terminal His (pET23a); chain copies: 2; blunt
[2] = target: T1, NalC-His; assay: EMSA; data not shown; settings: protein: recombinant; tags: C-terminal His (pET23a); chain copies: 2

B1: NalC-1 (endpoints III) (dsDNA)
DNA 1: TGGTCATTTAAGAACTGTATCGTACAGTACTGTTTTGGCAA
DNA 2: TTGCCAAAACAGTACTGTACGATACAGTTCTTAAATGACCA
B1: binds [1].

B2: NalC-2 (endpoints IV) (dsDNA)
DNA 1: TTGGCAAGCACTTCCGCTCATTCCTCCGCCTTGCCTCCCGC
DNA 2: GCGGGAGGCAAGGCGGAGGAATGAGCGGAAGTGCTTGCCAA
B2: no binding [1].

B3: 21-bp inverted repeat only (dsDNA)
DNA 1: AGAACTGTATCGTACAGTACT
DNA 2: AGTACTGTACGATACAGTTCT
B3: no binding [2].
